PMC6616073 (Frontiers in Pharmacology, 2003)
Positions of bridges follow the written chain, without caps; N, C: chain ends. No end group written: not given here.

Experiments:
Assay in all cases: radioligand binding
[1] = target: T1, human α7 nicotinic acetylcholine receptor stably expressed in the rat pituitary tumor-derived cell line GH4C1 (human, UniProt P36544 23-502); conditions: one partner purified
T1 construct: also called α7 nAChR; human α7 nAChR

[2] = target: T2, ligand-binding domain of the human nAChR α9 subunit (human, UniProt Q9UGM1 23-238); conditions: both partners purified
T2 construct: also called α9 LBD; human α9 LBD

[3] = target: T1, human α7 nicotinic acetylcholine …; conditions: one partner purified; remark: listed apart in the source
[4] = target: T3, membrane-bound Torpedo californica nicotinic acetylcholine receptor (Torpedo californica); conditions: one partner purified
T3 construct: also called T. californica nAChR; Torpedo nAChR
T3 sequence (P02710 25-461 limits assumed, chain 1 of 4): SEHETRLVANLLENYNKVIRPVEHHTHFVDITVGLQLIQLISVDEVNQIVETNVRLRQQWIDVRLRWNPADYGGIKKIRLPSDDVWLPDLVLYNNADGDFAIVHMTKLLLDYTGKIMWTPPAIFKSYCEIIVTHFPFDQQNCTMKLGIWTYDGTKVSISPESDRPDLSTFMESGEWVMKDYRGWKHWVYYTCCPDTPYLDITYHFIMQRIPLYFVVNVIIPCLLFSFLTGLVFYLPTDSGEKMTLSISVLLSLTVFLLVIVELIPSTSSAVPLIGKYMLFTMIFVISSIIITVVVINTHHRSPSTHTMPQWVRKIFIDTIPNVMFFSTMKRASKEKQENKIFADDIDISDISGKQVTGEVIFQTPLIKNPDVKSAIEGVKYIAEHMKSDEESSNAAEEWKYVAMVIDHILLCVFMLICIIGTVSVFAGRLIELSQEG
T3 sequence (P02712 25-493 limits assumed, chain 2 of 4, further chain): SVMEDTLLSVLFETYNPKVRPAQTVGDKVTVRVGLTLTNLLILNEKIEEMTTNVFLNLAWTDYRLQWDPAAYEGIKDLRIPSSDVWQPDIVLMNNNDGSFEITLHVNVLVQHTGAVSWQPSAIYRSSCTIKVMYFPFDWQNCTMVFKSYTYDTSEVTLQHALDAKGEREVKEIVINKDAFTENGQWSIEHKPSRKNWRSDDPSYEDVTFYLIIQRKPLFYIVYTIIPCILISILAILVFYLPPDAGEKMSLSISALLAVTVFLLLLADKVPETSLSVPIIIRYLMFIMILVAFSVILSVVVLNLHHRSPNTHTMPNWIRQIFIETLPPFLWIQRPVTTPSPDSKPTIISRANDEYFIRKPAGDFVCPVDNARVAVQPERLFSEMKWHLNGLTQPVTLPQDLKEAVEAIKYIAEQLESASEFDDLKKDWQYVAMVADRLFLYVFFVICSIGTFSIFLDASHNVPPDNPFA
T3 sequence (P02714 18-506 limits assumed, chain 3 of 4, further chain): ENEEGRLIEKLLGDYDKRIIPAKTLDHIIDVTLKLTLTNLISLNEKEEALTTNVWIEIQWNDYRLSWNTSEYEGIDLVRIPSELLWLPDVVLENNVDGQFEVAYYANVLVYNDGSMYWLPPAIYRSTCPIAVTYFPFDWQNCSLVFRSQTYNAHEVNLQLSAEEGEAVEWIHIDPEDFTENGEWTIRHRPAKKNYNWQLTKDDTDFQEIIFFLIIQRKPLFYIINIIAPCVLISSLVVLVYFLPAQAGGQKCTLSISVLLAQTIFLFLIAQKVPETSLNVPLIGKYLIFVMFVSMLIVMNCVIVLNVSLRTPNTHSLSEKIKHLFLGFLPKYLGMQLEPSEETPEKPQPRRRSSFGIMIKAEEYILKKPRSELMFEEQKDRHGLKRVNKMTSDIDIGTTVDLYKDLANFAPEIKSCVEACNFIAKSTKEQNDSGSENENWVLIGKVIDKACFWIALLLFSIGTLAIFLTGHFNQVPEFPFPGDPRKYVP
T3 sequence (P02718 22-522 limits assumed, chain 4 of 4, further chain): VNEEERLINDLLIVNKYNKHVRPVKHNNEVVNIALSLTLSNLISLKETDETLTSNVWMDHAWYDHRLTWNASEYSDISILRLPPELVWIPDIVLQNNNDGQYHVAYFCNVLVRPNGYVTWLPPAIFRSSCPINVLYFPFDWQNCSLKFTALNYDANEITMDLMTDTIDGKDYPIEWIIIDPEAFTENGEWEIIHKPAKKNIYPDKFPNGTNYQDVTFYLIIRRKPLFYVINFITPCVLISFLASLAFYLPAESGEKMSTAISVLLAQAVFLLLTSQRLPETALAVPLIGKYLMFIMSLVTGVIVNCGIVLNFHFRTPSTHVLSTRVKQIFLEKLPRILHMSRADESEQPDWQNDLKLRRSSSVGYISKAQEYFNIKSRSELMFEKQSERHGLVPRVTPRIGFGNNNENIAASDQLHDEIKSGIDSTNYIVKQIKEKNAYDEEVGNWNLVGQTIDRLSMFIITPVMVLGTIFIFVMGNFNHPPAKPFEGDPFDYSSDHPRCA

T2 sequence (Q9UGM1 23-238): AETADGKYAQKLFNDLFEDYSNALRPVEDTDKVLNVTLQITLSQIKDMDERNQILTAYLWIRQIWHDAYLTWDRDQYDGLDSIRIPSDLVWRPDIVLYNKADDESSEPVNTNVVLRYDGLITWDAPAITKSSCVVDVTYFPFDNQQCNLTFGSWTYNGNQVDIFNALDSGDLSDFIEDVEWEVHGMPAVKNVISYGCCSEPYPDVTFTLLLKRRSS
T1 sequence (P36544 23-502): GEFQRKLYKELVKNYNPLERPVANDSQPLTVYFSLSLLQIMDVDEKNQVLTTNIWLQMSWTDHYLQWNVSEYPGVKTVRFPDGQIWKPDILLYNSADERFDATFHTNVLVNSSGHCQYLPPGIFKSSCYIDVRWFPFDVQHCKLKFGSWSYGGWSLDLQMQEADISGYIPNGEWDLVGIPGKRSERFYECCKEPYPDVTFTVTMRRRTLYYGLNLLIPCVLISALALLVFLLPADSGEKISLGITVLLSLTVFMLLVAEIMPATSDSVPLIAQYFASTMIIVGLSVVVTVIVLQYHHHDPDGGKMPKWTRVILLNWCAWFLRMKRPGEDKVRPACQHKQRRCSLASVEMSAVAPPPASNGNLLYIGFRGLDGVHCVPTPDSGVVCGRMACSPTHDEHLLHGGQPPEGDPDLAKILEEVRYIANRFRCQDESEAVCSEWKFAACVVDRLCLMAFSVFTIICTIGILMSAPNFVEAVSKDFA

Binder	IC50 [1] [µM]	IC50 [2] [µM]	IC50 [3] [µM]	IC50 [4] [µM]
CTTRTYYTPTRMKVSKC (not fully specified (bridges); cysteine pairing not given here, also called Lynx1 fragment (1); peptide 1)	173	41.7	148	–
CTRTYYTPTRMC (also called Lynx1 linear short (4); peptide 4) [Lynx1 short linear (4), shorter loop II fragment of human Lynx1 with free terminal Cys]	69.2	–	–	–
CKMVRHQRSPYEVVRRMC (disulfide 1-18)	13.1	41.7	–	7.4
CTRTYYTPTRMC (not fully specified (bridges); cysteine pairing not given here, also called peptide 3; cyclic shorter form of Lynx1 fragment) [Lynx1 short (3), shorter loop II fragment of human Lynx1 with terminal Cys, disulfide-cyclised]	58.9	–	–	–
TTRTYYTPTRMKVSK (also called Lynx1 linear fragment (2); peptide 2) [Lynx1 linear (2), synthetic 15-membered loop II fragment of human Lynx1]	–	40.7	–	–
